According to US20230399394A1 (SUNSHINE GUOJIAN PHARMACEUTICAL SHANGHAI, published 2023):

T1: Human IL-33-his (human, UniProt O95760 112-270, biotinylated with EZ-Link NHS-Biotin where used as IL-33-his-biotin)
T1 construct: Used plain (SPR, cell assays) and biotinylated (ELISA); also called IL-33-his-biotin
T1 sequence: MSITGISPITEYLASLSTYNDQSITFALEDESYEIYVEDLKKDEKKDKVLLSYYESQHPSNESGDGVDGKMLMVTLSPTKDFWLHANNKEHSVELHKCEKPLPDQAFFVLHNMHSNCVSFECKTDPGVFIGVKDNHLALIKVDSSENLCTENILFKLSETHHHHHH

T2: Cynomolgus IL-33-his (cynomolgus, UniProt A0A2K5W3I1 112-269, biotinylated in the ELISA of Example 6)
T2 construct: Bought protein; also called cynomolgus IL-33 protein; Cynomolgus monkeys IL-33
T2 sequence: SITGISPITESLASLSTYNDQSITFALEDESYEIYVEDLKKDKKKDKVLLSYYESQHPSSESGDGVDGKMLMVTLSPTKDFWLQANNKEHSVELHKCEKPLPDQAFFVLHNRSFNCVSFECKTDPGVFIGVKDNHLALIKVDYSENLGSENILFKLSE


Key:
[1] = target: T1, Human IL-33-his; test: indirect ELISA, biotinylated IL-33-his on streptavidin plate
Procedure: The binding ability of murine antibody to human IL-33 protein was determined by indirect enzyme-linked immunosorbent assay (ELISA). The specific methods were as follows: The plate was pre-coated with biotin-avidin (SA) which was diluted in coating solution (50 mM carbonate coating buffer, pH 9.6) to 2 μg/ml at 4° C. overnight, then the plate was blocked with 5% skim milk powder at 37° C. for 2 hours and stored at −80° C. for later use. Biotinylated recombinant human IL-33-his protein was diluted to 0.5 μg/ml in coating solution (50 mM carbonate coating buffer, pH 9.6) and was added at 100 μl/well to the pre-coated SA plate, 37° C., 0.5 h. After washing the plate with PBST for 3 times, the antibodies to be tested were diluted by gradient with 1% BSA buffer and added into the blocked plate at 100 μl/well, and incubated at 37° C. for 1 hour. The plate was washed with PBST for 3 times, and the HRP-labeled goat anti-mouse IgG was added and placed at 37° C. for 30 min. After washing the plate with PBST for 3 times, the plate was patted on the absorbent paper to remove residual droplets as far as possible. […] OD values were read at 450 nm on the microplate reader to analyze the binding ability of the antibodies to be tested to the target antigen human IL-33-his.

[2] = target: T1, Human IL-33-his; test: cell-based or functional assay
[3] = target: T1, Human IL-33-his; test: competition ELISA, antibody mixed with IL-33-his-biotin, ST2 on plate; competitor ST2
Procedure: ST2 is the only receptor for IL-33 that has been discovered so far. As a cytokine, IL-33 exerts its physiological function depending on ST2 signaling pathway, and the blocking activity of antibody can reflect the neutralizing activity thereof. The specific method was as follows: the plate was coated with 2 μg/ml ST2 PBS solution at 4° C. overnight; the plate was washed with PBST for 3 times, then the plated was blocked with 5% skim milk powder at 37° C. for 2 hours; the plate was washed with PBST for 3 times for later use. 20 ng/ml IL-33-his-biotin antigen diluted by 1% BSA was mixed with antibodies to be tested diluted by gradient with 1% BSA at 1:1 equal volume and incubated at 37° C. for […]. The mixture was added to a pre-coated ST2 plate and incubated at 37° C. for 1 h. The plate was washed with PBST for 3 times. HRP-labeled streptavidin secondary antibody was added at 1:8000 and incubated at 37° C. for 0.5 hours. After washing the plate with PBST for 3 times, the plate was patted on the absorbent paper to remove residual droplets as far as possible. 100 μl TMB was added to each well, and the plate was placed at room temperature (20±5° C.) for 5 minutes away from light; 50 μl 2M H₂SO₄ terminating solution was added to each well to terminate the substrate reaction. OD values were read at 450 nm on the microplate reader.

[4] = target: T2, Cynomolgus IL-33-his; test: indirect ELISA, biotinylated cynomolgus IL-33-his on streptavidin plate
Procedure: The binding ability of murine antibody to cynomolgus IL-33 was determined by indirect enzyme-linked immunosorbent assay (ELISA). The specific methods were as follows: The plate was pre-coated by biotin-avidin (SA) which was diluted in coating solution (50 mM carbonate coating buffer, pH 9.6) to 2 μg/ml at 4° C. overnight. The plate was blocked with 5% skim milk powder at 37° C. for 2 hours, and stored at −80° C. for later use. Biotinylated recombinant cynomolgus IL-33-his protein was diluted to 1 μg/ml in coating solution (50 mM carbonate coating buffer, pH 9.6) and was added at 100 μl/well to the pre-coated SA plate for 0.5 h at 37° C. After washing the plate with PBST for 3 times, the antibodies to be tested were diluted by gradient with 1% BSA buffer and added into the blocked plate with 100 μl/well, and incubated at 37° C. for 1 hour. The plate was washed with PBST for 3 times, and the HRP-labeled goat anti-mouse IgG was added and placed at 37° C. for 30 min. After washing the plate with PBST for 3 times, the plate was patted on the absorbent paper to remove residual droplets as far as possible. […] OD values were read at 450 nm on the microplate reader to analyze the binding ability of the antibody to the target antigen cynomolgus IL-33-his.

[5] = target: T1, Human IL-33-his; test: competition ELISA, antibody mixed with IL-33-his-biotin, ST2-Fc on plate; competitor ST2-Fc
Procedure: (§1) ST2-Fc protein was diluted to 1 μg/mL with ELISA coating solution to coat ELISA plate with 100 μL/well. The plate was placed in a wet box at 4° C. for 16 h for coating. The ELISA plate was washed 3 times with PBST, and then was blocked with 2% BSA prepared in PBS at 200 μL/well at room temperature for 2 h. The plate was washed once with PBST, and was patted dry to remove the excess blocking solution. Each monoclonal antibody was diluted with 1% BSA prepared in PBST in a 3-fold gradient. The highest concentration of antibody was 10 μg/mL, and the antibody was diluted for 11 gradients. The diluted antibody was mixed 1:1 with 10 ng/ml IL-33-his-biotin, and then the mixture was added into the ELISA well at 100 μL/well. The plate was incubated at room temperature for 1 h. Each concentration was added to duplicate wells in parallel (maximum final concentration of antibody was […], final concentration of IL-33-his-biotin was 5 ng/mL). Unbound or non-specifically bound primary antibodies were washed out. According to the instructions of the antibody, HRP labeled streptavidin secondary antibody was diluted to an appropriate concentration with antibody diluent solution, then it was added to ELISA plate with 100 μL/well, and was incubated at room temperature for 1 h. The ELISA plate was washed with PBST for 5 times, and was patted dry on absorbent paper to remove excess liquid. TMB developing solution was added with 100 μL/well for development to an appropriate degree. 2M H₂SO₄ was added with 70 μL/well to terminate development, and the absorbance was measured at 450 nm on a multifunctional microplate reader. The data were analyzed.

[6] = target: T1, Human IL-33-his; test: competition ELISA: antibody mixed with IL-33-his-biotin, added to an ST2-Fc-coated plate, HRP-streptavidin; blocked ligand ST2-Fc
Procedure: as §1, with “According to the instructions of the antibody, HRP labeled streptavidin secondary antibody was diluted to an appropriate concentration with antibody diluent solution, then it was added to ELISA plate with 100 μL/well, and was incubated at room temperature for 1 h. The ELISA plate was washed with PBST for 5 times, and was patted dry on absorbent paper to remove excess liquid. TMB developing solution was added with 100 μL/well for development to an appropriate degree.” left out

[7] = target: T1, Human IL-33-his; test: ELISA, IL-33-his-biotin on streptavidin plate, anti-human Fc detection
Procedure: SA protein was diluted to 2 μg/mL to coat ELISA plate at 100 μL/well overnight at 4° C. The plate was washed with PBST (PBS containing 0.05% Tween20) for 3 times, and blocked with 2% BSA prepared in PBS at 200 μL/well, at room temperature for 2 h. After the plate was washed twice with PBST, IL-33-his-biotin protein was diluted to 1 μg/mL with 1% BSA prepared in PBST, and was added to ELISA plate at 100 μL/well. The plate was incubated at room temperature for 1 h, and each monoclonal antibody was diluted with 1% BSA prepared in PBST in a 3-fold gradient. The highest concentration of antibody was 10 μg/mL, and the antibody was diluted for 12 gradients. Each diluted monoclonal antibody was added to ELISA wells with 100 μL/well, and the plate was incubated at room temperature for 1 h. Each sample was added to duplicate wells in parallel. The plate was washed with PBST for 3 times, and HRP-anti human IgG Fc secondary antibody prepared with PBST was diluted at an appropriate ratio, and was added to ELISA wells at 100 μL/well. The plate was incubated at room temperature for 1 h. After washing with PBST for 3 times, TMB developing solution was added at 100 μL/well. When the development met expectations, 2M H₂SO₄ was added to terminate the chromogenic reaction at 70 μL/well. Each reaction solution was shaken uniformly and OD450 nm was read on a microplate reader. The data was analyzed and EC₅₀ was calculated.

| Binder | EC50 [1] [nM] | IC50 of inhibition of IL-33-induced IL-6 expression in HUVEC cells [2] [nM] | IC50 of inhibition of IL-33-induced IL-8 expression in HUVEC cells [2] [nM] | IC50 [3] [nM] | EC50 [4] [nM] | IC50 [5] [nM] | IC50 (read off the curve) [6] [nM] | EC50 [7] [nM] |
| --- | --- | --- | --- | --- | --- | --- | --- | --- |
| 871G1 (antibody, V domains shown, Murine hybridoma antibody; also called murine antibody 871G1) VH: QVHLKESGPGLVAPSQSLSITCNVSGFSLSKYGVHWIRQTPGRGLDWLGVLRAGGTISYNSALMSRLSISEDISKSQVFLKMNDLQTDDSAIYFCARDHYYYSSFGGFASWGQGTLVTVSA VL: DIQMTQSPASQSASLGESVTITCLASQTIGAWLAWYRQQPGKSPQLLIYAATRLADGVPSRFSGSGSGTKFSFKINNLQAEDFVIYYCQQLNSTPYTFGGGTRLEM | 0.14 | 1.66 | 0.16 | 0.74 | 0.04 |  |  |  |
| 864F3-ch1 (antibody, human IgG4 S228P, kappa, V domains shown, Chimeric: murine variable regions on human IgG4 (S228P) and human kappa constant regions; also called chimeric antibody 864F3-ch1) VH: QVQLKESGPGLVAPSQSLSITCTVSGFSLTNYGVHWVRLPPGKGLEWLGVIRAGGSSDYNSALMSRLNIRKDNSKSQVFLEMNSLQTADTAMYYCARDHYFSNSYGGSPYWGQGTLVTVSA VL: DIQMTQSPASQSASLGESVTITCLASQTIATWLAWYQQKPGKSPQLLIYAATRLADGVPSRFSGSGSGTEFSFKISSLQAEDFVIYYCQQLYNTPYTFGGGTKLEIKR |  |  |  |  |  | 45.2 | ~6 | 0.127 |
